From patent publication US20240352121A1, “LAIR-1 AGONISTIC ANTIBODIES AND METHODS OF USE THEREOF” (NEXTCURE, INC., priority 2023, published 2024)

Columns and labels:
healthy CD34+ cells = experiment: NC525 clustering of LAIR-1 in healthy CD34+ cells; type: cell-based, human
MV4-11 cells [1] = experiment: MV4-11-luciferase cell-derived xenograft (CDX) model; type: in vivo, NSG mice
Description: 2e6 luciferase-expressing MV4-11-Luc or THP-1-Luc cells were suspended in sterile PBS and implanted into NSG mice via tail-vein injection. […] AML cell proliferation was monitored by weekly i.p. injection of D-Luciferin, immediately followed by IVIS bioluminescent imaging and quantification of luminescent signal. […] Imaging Perkin Elmore IVIS Lumina XRMS Series III.
(§1) NSG mice were injected with 2e6 THP-1 luciferase cells or 2e6 MV4-11-luciferase cells via tail vein injection. Leukemia progression was quantified by i.p. injection of 100 μL bioluminescent substrate and IVIS imaging 8 minutes post injection. Progression was assessed weekly staring on Day 7 post-challenge. 10 mg/kg mab treatment was performed by i.p injection starting on day 8 and continuing twice a week until the end of the study. For the subcutaneous engraftment model, NSG mice were subcutaneously injected on the right flank with 5e6 MV4-11-Luc-LAIR-1^OE cells. Mice were treated by weekly i.p. injection of 10 mg/kg mAb. Tumor growth was measured by calipers twice weekly until end point.

MV4-11 cells [2] = experiment: Phospho-array on in vivo grown MV4-11 cells, subcutaneous CDX model; design: species or system NSG mice; details: 10 mg/kg weekly i.p.
Description: as §1

MV4-11 cells [3] = experiment: Digital spatial imaging of bone and spleen of MV4-11 CDX mice; type: in vivo, NSG mice
Description: FIGS. 6A-6D display LAIR-1 signaling restricts AML survival signaling pathways in vivo. […] N=3 mice per group. […] N=6 mice per group. FIG. 6C is representative images of CDX mouse bones stained with DAPI and anti-human CD45 used to quantify the number of MV4-11 cells in the indicated region of interest (ROI) (highlighted). ROI area is equal between samples. […] Read counts are normalized to Histone H3 and ribosomal protein S6. N=3-11 quantified tissue regions across 2 isotype-treated or 2 LAIR-1 mAb-treated mice. Error bars represent standard error of mean. P values determined by Student's T test.
Protocols and reagents from NanoString were used for GeoMx digital spatial imaging (DSP). Briefly, formalin-fixed paraffin-embedded (FFPE) sections of tumor and spleen were deparaffinized and rehydrated, antigen-retrieved in citrate buffer, blocked, and stained with the Human Immune Profiling Core and Cell Death Panel overnight at 37 degrees C. Anti-HCD45-Alexaflour 647 antibody (NBP2-34528AF647 from Novus Biologicals, Centennial, CO) was used as a morphology marker at 5 μg/mL to identify MV4-11 cells. After washing, slides were fixed in 4% paraformaldehyde and nuclei were stained with Syto13. Slides were scanned and regions of interest (human CD45 regions) were acquired on a GeoMx DSP instrument (Nanostring, Seattle, WA). Approximately 5 regions of interest (ROIs) were collected per tissue, and samples were multi-plexed and processed on the nCounter Prep Station and Digital Analyzer as recommended. Data were analyzed on DSP Analysis software. Following quality control, data were normalized to housekeeping genes, and statistics were performed using a linear mixed model with a Benjamin-Hochberg correction.

THP-1 cells = experiment: THP-1-luciferase cell-derived xenograft (CDX) model; type: in vivo, NSG mice; details: 10 mg/kg i.p. twice a week
Description: FIGS. 29A-29C display h11B3 LAIR-1 mAbs, containing a variable light chain of SEQ ID NO: 16 and a variable heavy chain of SEQ ID NO:27, limits Leukemic cell growth in CDX Models. 2e6 luciferase-expressing MV4-11-Luc or THP-1-Luc cells were suspended in sterile PBS and implanted into NSG mice via tail-vein injection. Starting on day 8 post-challenge, mice were treated twice-weekly by intraperitoneal (i.p.) injection of 10 mg/kg of h11B3 LAIR-1 mAbs, containing a variable light chain of SEQ ID NO: 16 and a variable heavy chain of SEQ ID NO:27, or isotype (FIG. 29A). AML cell proliferation was monitored by weekly i.p. injection of D-Luciferin, immediately followed by IVIS bioluminescent imaging and quantification of luminescent signal. Mice NOD.Cg-Prkdcscid Il2rgtm1Wjl/SzJ (NSG) purchased from Jackson Labs strain #005557. Substrate Xenolight RediJect D-Luciferin Perkin Elmore Cat #770504. Imaging Perkin Elmore IVIS Lumina XRMS Series III.
NSG mice were injected with 2e6 THP-1 luciferase cells or 2e6 MV4-11-luciferase cells via tail vein injection. Leukemia progression was quantified by i.p. injection of 100 μL bioluminescent substrate and IVIS imaging 8 minutes post injection. Progression was assessed weekly staring on Day 7 post-challenge. […] Tumor growth was measured by calipers twice weekly until end point.

[4] = tested on: bone-marrow cells from healthy control donors; type: cell-based, human
Description: Cryopreserved AML bone-marrow cells or healthy donor CD34 cells were thawed and plated in 96 wells plates. Cells were engaged with the indicated concentrations of LAIR-1 mAb or isotype control for 30 min at room temperature. Subsequently, cells were diluted in IMDM with 2% FBS and mixed with semisolid methylcellulose-based medium (MethoCult H4435 Enriched, StemCell Technologies, Vancouver, Canada) which contains human cytokines (stem cell factor, IL-3, IL-6, EPO, G-CSF, GM-CSF). Then, between 1e4 and 2.5e5 LSCs, or, between 1e3 and 5e3 healthy donor CD34 cells per well were plated on 6-well SmartDishes (StemCell Technologies, Vancouver, Canada). The cell-loaded plates were incubated at 37° C. with 5% CO2 in air and ≥95% humidity. On day 14, colony formation was counted by STEMvision (StemCell Technologies, Vancouver, Canada), an automated and standardized colony counting instrument. The automated results were confirmed and edited manually by the STEMvision Colony Marker software.

[5] = Pharmacokinetic study in balb/c mice; type: in vivo; details: 10 mg/kg intraperitoneal, blood serum
Description: Balb/c mice were intraperitoneally injected with 10 mg/kg h11B3. Mice were subsequently bled by cheek-vein puncture at the indicated time points. Blood serum was isolated by centrifugation at 2500 RCF in serum-collection tubes. Blood serum was tested for circulating h11B3 by Universal PK assay. Briefly, h11B3 in mouse serum was captured using a biotin-labeled anti-human IgG inside a nanoliter column of a Gyrolab CD. Alexa Fluor labeled anti-human IgG was used for detection. The quantitative dynamic range was (500-100,000) ng/ml (LLOQ-ULOQ). The standard curve and controls were prepared in pooled Balb/C serum (Biochemed). Standard curve, controls, and samples were diluted 1:10-fold (MRD) in buffer. Samples above the upper limit of quantitation (100,000 ng/mL) were brought within range by diluting them in Rexiip buffer. The laser-induced fluorescence detection technique detected the amount of analyte present in the sample. The standard curve signals were used to interpolate unknown sample concentrations. All samples were analyzed in duplicates and assigned an acceptance criteria (±20% CV and Bias). Gyrolab Evaluator software was used to perform 4PL with Y weighing non-linear regression to interpolate unknown sample concentrations.

B1: LAIR-1 mAb: humanized agonist anti-LAIR-1 mAb, IgG1 backbone; h11B3 VL-2 (SEQ ID NO: 16), h11B3 VH-3 (SEQ ID NO: 27) (antibody, V domains shown)
VH: EVQLVESGGGLVQPGGSLKLSCAASGFTFNTNAMYWVRQAPGKGLEWVGRIRSKSSNYATYYAASVKGRFTISRDDSKNTLYLQMNSLKTEDTAVYYCVRGGSGFFAYWGQGTLVTVSS
VL: DIQMTQSPSSLSASLGDRVTITCKASEDIYIRLAWYQQKPGKAPRLLISTATSLETGVPSRFSGSGSGTDYTFTISSLQPEDIATYYCQQYWSTPYTFGGGTRLEIK
modifications: IgG1 constant regions; Synthetic: h11B3 VH-3; Synthetic: h11B3 VL-2
For B1, the “changes in signaling activity” value (healthy CD34+ cells) was “minimal changes”, the “leukemic cell growth in vivo” value (MV4-11 cells [1]; 10 mg/kg i.p. twice a week) was “inhibited leukemic cell growth” and the “inhibition of LAIR-1 OE AML growth compared to LAIR-1 WT” value (MV4-11 cells [1]; MV4-11 LAIR-1 OE vs WT cells) was “more strongly inhibiting”. The tumor burden (MV4-11 cells [1]; biweekly dose of 10 mg/kg, flow cytometry of spleen and bone marrow) was “reduce tumor burden”, the “AML cells in the blood, spleen, and bone marrow” value (MV4-11 cells [1]; mouse, in vivo) was “nearly absent” and the “percentage of dead MV4-11 cells in blood, spleen, and bone-marrow” value (MV4-11 cells [1]; mouse, in vivo) was “increased”. For the same molecule, the “MV4-11 in vivo growth, monotherapy” value (MV4-11 cells [1]; physiologically relevant doses, 10 mg/kg NC525, 100 mg/kg VEN, 0.5 mg/kg AZA) was “significantly better activity than AZA monotherapy”, the MAPK pathway (MV4-11 cells [2]) was “significantly suppressed” and the “activation of mTORC, AKT, and NF-kB” value (MV4-11 cells [2]) was “inhibited activation”. For the same molecule, the “AML cells (human CD45+ cells) in the bones” value (MV4-11 cells [3]; day 22 post-engraftment) was “reduction”, the “anti-apoptotic BCL-XL” value (MV4-11 cells [3]; in bones but not the spleen) was “decreased levels” and the “anti-apoptotic uncleaved PARP” value (MV4-11 cells [3]; in bones but not the spleen) was “decreased levels”. For the same molecule, the “leukemic cell growth in vivo” value (THP-1 cells) was “inhibited leukemic cell growth”, the CFU formation [4] was “no change” and the Tmax [5] was 8 h.
